{"source": "the supplement of paper PMC10567573", "parents": {"B1": {"name": "MLL5 (parent)", "chain": "EQIAERKRKMVSWEASSLGLVTAA"}}}
{"variants_of": "B1", "assay": "protein stability index of a GFP-peptide fusion (GPS, HEK-293T) (PSI 1-6); higher = more stable", "settings": "c terminus: a fixed tail appended"}
{"variant": "EQIAERKRKMVSWEASSLGLWTAA", "note": "[V21W]", "protein stability index": 2.86}
{"variant": "EQIAERKRKMVSWEASSLGLCTAA", "note": "[V21C]", "protein stability index": 3.05}
{"variant": "EQIAERKRKMVSWEASSLGLLTAA", "note": "[V21L]", "protein stability index": 2.76}
{"variant": "EQIAERKRKMVSWEASSLGLNTAA", "note": "[V21N]", "protein stability index": 3.22}
{"variant": "EQIAERKRKMVSWEASSLGLMTAA", "note": "[V21M]", "protein stability index": 3.32}
{"variant": "EQIAERKRKMVSWEASSLGLDTAA", "note": "[V21D]", "protein stability index": 3.55}
{"variant": "EQIAERKRKMVSWEASSLGLSTAA", "note": "[V21S]", "protein stability index": 3.68}
{"variant": "EQIAERKRKMVSWEASSLGLVNAA", "note": "[T22N]", "protein stability index": 3.21}
{"variant": "EQIAERKRKMVSWEASSLGLVMAA", "note": "[T22M]", "protein stability index": 2.63}
{"variant": "EQIAERKRKMVSWEASSLGLVLAA", "note": "[T22L]", "protein stability index": 2.18}
{"variant": "EQIAERKRKMVSWEASSLGLVQAA", "note": "[T22Q]", "protein stability index": 3.73}
{"variant": "EQIAERKRKMVSWEASSLGLVIAA", "note": "[T22I]", "protein stability index": 1.62}
{"variant": "EQIAERKRKMVSWEASSLGLVKAA", "note": "[T22K]", "protein stability index": 2.54}
{"variant": "EQIAERKRKMVSWEASSLGLVFAA", "note": "[T22F]", "protein stability index": 1.83}
{"variant": "EQIAERKRKMVSWEASSLGLVHAA", "note": "[T22H]", "protein stability index": 2.85}
{"variant": "EQIAERKRKMVSWEASSLGLVYAA", "note": "[T22Y]", "protein stability index": 2.57}
{"variant": "EQIAERKRKMVSWEASSLGLVAAA", "note": "[T22A]", "protein stability index": 3.33}
{"variant": "EQIAERKRKMVSWEASSLGLVWAA", "note": "[T22W]", "protein stability index": 1.79}
{"variant": "EQIAERKRKMVSWEASSLGLVSAA", "note": "[T22S]", "protein stability index": 2.92}
{"variant": "EQIAERKRKMVSWEASSLGLVVAA", "note": "[T22V]", "protein stability index": 3.58}
{"variant": "EQIAERKRKMVSWEASSLGLVEAA", "note": "[T22E]", "protein stability index": 3.63}
{"variant": "EQIAERKRKMVSWEASSLGLVDAA", "note": "[T22D]", "protein stability index": 3.63}
{"variant": "EQIAERKRKMVSWEASSLGLVTCA", "note": "[A23C]", "protein stability index": 3.12}
{"variant": "EQIAERKRKMVSWEASSLGLVTKA", "note": "[A23K]", "protein stability index": 3.27}
{"variant": "EQIAERKRKMVSWEASSLGLVTMA", "note": "[A23M]", "protein stability index": 3.11}
{"variant": "EQIAERKRKMVSWEASSLGLVTEA", "note": "[A23E]", "protein stability index": 3.96}
{"variant": "EQIAERKRKMVSWEASSLGLVTQA", "note": "[A23Q]", "protein stability index": 2.31}
{"variant": "EQIAERKRKMVSWEASSLGLVTDA", "note": "[A23D]", "protein stability index": 3.98}
{"variant": "EQIAERKRKMVSWEASSLGLVTPA", "note": "[A23P]", "protein stability index": 3.41}
{"variant": "EQIAERKRKMVSWEASSLGLVTSA", "note": "[A23S]", "protein stability index": 2.68}
{"variant": "EQIAERKRKMVSWEASSLGLVTFA", "note": "[A23F]", "protein stability index": 1.58}
{"variant": "EQIAERKRKMVSWEASSLGLVTYA", "note": "[A23Y]", "protein stability index": 2.28}
{"variant": "EQIAERKRKMVSWEASSLGLVTIA", "note": "[A23I]", "protein stability index": 3.23}
{"variant": "EQIAERKRKMVSWEASSLGLVTRA", "note": "[A23R]", "protein stability index": 2.63}
{"variant": "EQIAERKRKMVSWEASSLGLVTTA", "note": "[A23T]", "protein stability index": 2.31}
{"variant": "EQIAERKRKMVSWEASSLGLVTWA", "note": "[A23W]", "protein stability index": 2.08}
{"variant": "EQIAERKRKMVSWEASSLGLVTNA", "note": "[A23N]", "protein stability index": 2.31}
{"variant": "EQIAERKRKMVSWEASSLGCVTAA", "note": "[L20C]", "protein stability index": 3.71}
{"variant": "EQIAERKRKMVSWEASSLGTVTAA", "note": "[L20T]", "protein stability index": 3.87}
{"variant": "EQIAERKRKMVSWEASSLGNVTAA", "note": "[L20N]", "protein stability index": 3.62}
{"variant": "EQIAERKRKMVSWEASSLGDVTAA", "note": "[L20D]", "protein stability index": 3.82}
{"variant": "EQIAERKRKMVSWEASSLGQVTAA", "note": "[L20Q]", "protein stability index": 3.47}
{"variant": "EQIAERKRKMVSWEASSLGYVTAA", "note": "[L20Y]", "protein stability index": 2.68}
{"variant": "EQIAERKRKMVSWEASSLGHVTAA", "note": "[L20H]", "protein stability index": 3.54}
{"variant": "EQIAERKRKMVSWEASSLGFVTAA", "note": "[L20F]", "protein stability index": 3.35}
{"variant": "EQIAERKRKMVSWEASSLGPVTAA", "note": "[L20P]", "protein stability index": 3.72}
{"variant": "EQIAERKRKMVSWEASSLGKVTAA", "note": "[L20K]", "protein stability index": 3.9}
{"variant": "EQIAERKRKMVSWEASSLGWVTAA", "note": "[L20W]", "protein stability index": 2.42}
{"variant": "EQIAERKRKMVSWEASSLGVVTAA", "note": "[L20V]", "protein stability index": 3.37}
{"variant": "EQIAERKRKMVSWEASSLGSVTAA", "note": "[L20S]", "protein stability index": 4.99}
{"variant": "EQIAERKRKMVSWEASSLGIVTAA", "note": "[L20I]", "protein stability index": 3.77}
{"variant": "EQIAERKRKMVSWEASSLGEVTAA", "note": "[L20E]", "protein stability index": 4.3}
{"variant": "EQIAERKRKMVSWEAKSLGLVTAA", "note": "[S16K]", "protein stability index": 3.23}
{"variant": "EQIAERKRKMVSWEACSLGLVTAA", "note": "[S16C]", "protein stability index": 2.59}
{"variant": "EQIAERKRKMVSWEAHSLGLVTAA", "note": "[S16H]", "protein stability index": 1.57}
{"variant": "EQIAERKRKMVSWEAPSLGLVTAA", "note": "[S16P]", "protein stability index": 3}
{"variant": "EQIAERKRKMVSWEALSLGLVTAA", "note": "[S16L]", "protein stability index": 1.99}
{"variant": "EQIAERKRKMVSWEAISLGLVTAA", "note": "[S16I]", "protein stability index": 1.94}
{"variant": "EQIAERKRKMVSWEARSLGLVTAA", "note": "[S16R]", "protein stability index": 3.57}
{"variant": "EQIAERKRKMVSWEAESLGLVTAA", "note": "[S16E]", "protein stability index": 3.02}
{"variant": "EQIAERKRKMVSWEATSLGLVTAA", "note": "[S16T]", "protein stability index": 2.77}
{"variant": "EQIAERKRKMVSWEAQSLGLVTAA", "note": "[S16Q]", "protein stability index": 3.05}
{"variant": "EQIAERKRKMVSWEAASLGLVTAA", "note": "[S16A]", "protein stability index": 3.11}
{"variant": "EQIAERKRKMVSWEADSLGLVTAA", "note": "[S16D]", "protein stability index": 2.86}
{"variant": "EQIAERKRKMVSWEAWSLGLVTAA", "note": "[S16W]", "protein stability index": 1.77}
{"variant": "EQIAERKRKMVSWEAVSLGLVTAA", "note": "[S16V]", "protein stability index": 2.29}
{"variant": "EQIAERKRKMVSWEASNLGLVTAA", "note": "[S17N]", "protein stability index": 2.71}
{"variant": "EQIAERKRKMVSWEASVLGLVTAA", "note": "[S17V]", "protein stability index": 2.31}
{"variant": "EQIAERKRKMVSWEASALGLVTAA", "note": "[S17A]", "protein stability index": 2.77}
{"variant": "EQIAERKRKMVSWEASMLGLVTAA", "note": "[S17M]", "protein stability index": 1.54}
{"variant": "EQIAERKRKMVSWEASKLGLVTAA", "note": "[S17K]", "protein stability index": 3.54}
{"variant": "EQIAERKRKMVSWEASYLGLVTAA", "note": "[S17Y]", "protein stability index": 2.43}
{"variant": "EQIAERKRKMVSWEASHLGLVTAA", "note": "[S17H]", "protein stability index": 2.7}
{"variant": "EQIAERKRKMVSWEASTLGLVTAA", "note": "[S17T]", "protein stability index": 2.98}
{"variant": "EQIAERKRKMVSWEASFLGLVTAA", "note": "[S17F]", "protein stability index": 1.37}
{"variant": "EQIAERKRKMVSWEASDLGLVTAA", "note": "[S17D]", "protein stability index": 2.98}
{"variant": "EQIAERKRKMVSWEASELGLVTAA", "note": "[S17E]", "protein stability index": 3.41}
{"variant": "EQIAERKRKMVSWEASPLGLVTAA", "note": "[S17P]", "protein stability index": 3.46}
{"variant": "EQIAERKRKMVSWEASCLGLVTAA", "note": "[S17C]", "protein stability index": 1.44}
{"variant": "EQIAERKRKMVSWEASGLGLVTAA", "note": "[S17G]", "protein stability index": 3.12}
{"variant": "EQIAERKRKMVSWEASQLGLVTAA", "note": "[S17Q]", "protein stability index": 3.08}
{"variant": "EQIAERKRKMVSWEASLLGLVTAA", "note": "[S17L]", "protein stability index": 3.15}
{"variant": "EQIAERKRKMVSWEASWLGLVTAA", "note": "[S17W]", "protein stability index": 1.76}
{"variant": "EQIAERKRKMVSWEASSLGLVTAS", "note": "[A24S]", "protein stability index": 3.57}
{"variant": "EQIAERKRKMVSWEASSLGLVTAC", "note": "[A24C]", "protein stability index": 2.39}
{"variant": "EQIAERKRKMVSWEASSLGLVTAY", "note": "[A24Y]", "protein stability index": 2.1}
{"variant": "EQIAERKRKMVSWEASSLGLVTAN", "note": "[A24N]", "protein stability index": 3.25}
{"variant": "EQIAERKRKMVSWEASSLGLVTAD", "note": "[A24D]", "protein stability index": 4.11}
{"variant": "EQIAERKRKMVSWEASSLGLVTAQ", "note": "[A24Q]", "protein stability index": 3.39}
{"variant": "EQIAERKRKMVSWEASSLGLVTAE", "note": "[A24E]", "protein stability index": 4.38}
{"variant": "EQIAERKRKMVSWEASSLGLVTAK", "note": "[A24K]", "protein stability index": 2.4}
{"variant": "EQIAERKRKMVSWEASSLGLVTAF", "note": "[A24F]", "protein stability index": 2.29}
{"variant": "EQIAERKRKMVSWEASSLGLVTAV", "note": "[A24V]", "protein stability index": 3.04}
{"variant": "EQIAERKRKMVSWEASSLGLVTAH", "note": "[A24H]", "protein stability index": 3.17}
